Laboratory results taken from article PMC11827629.

How the values were obtained:
[1] = molecular target: T1, thrombin, N-terminally 2PCA-labeled (Cy5, biotin) (UniProt P00734;P00734 328-363;364-622); assay: single-molecule FRET (koff/kon); koff 0.7 +/- 0.1 s-1; kon 0.7 +/- 0.1 e8 M-1 s-1; main text gives error 0.8; smFRET: 1x PBS with 2.5 mM PCA, 0.155 U/ul PCD, 1 mM Trolox, 5 nM Cy3-aptamer, 23 +/- 1 C, pH not stated; QCM: PBS, flow 45 +/- 3 ul/min, thrombin 0.06-16.5 nM
[2] = molecular target: T1, thrombin, N-terminally 2PCA-labeled …; assay: single-molecule FRET (koff/kon); koff 0.1 +/- 0.1 s-1; kon 0.2 +/- 0.1 e8 M-1 s-1; main text gives error 0.7; smFRET: 1x PBS with 2.5 mM PCA, 0.155 U/ul PCD, 1 mM Trolox, 5 nM Cy3-aptamer, 23 +/- 1 C, pH not stated; QCM: PBS, flow 45 +/- 3 ul/min, thrombin 0.06-16.5 nM
human alpha-thrombin [3] = molecular target: T2, human alpha-thrombin (Homo sapiens, UniProt P00734;P00734 328-363;364-622); assay: QCM; about twice the sensitivity of RE31; response at 300 pM; release 3.1 +/- 1.05% per 5 min at 16.5 nM; smFRET: 1x PBS with 2.5 mM PCA, 0.155 U/ul PCD, 1 mM Trolox, 5 nM Cy3-aptamer, 23 +/- 1 C, pH not stated; QCM: PBS, flow 45 +/- 3 ul/min, thrombin 0.06-16.5 nM
[4] = molecular target: T1, thrombin, N-terminally 2PCA-labeled …; assay: single-molecule FRET (koff/kon); koff 0.3 +/- 0.1 s-1; kon 1.1 +/- 0.1 e8 M-1 s-1; smFRET: 1x PBS with 2.5 mM PCA, 0.155 U/ul PCD, 1 mM Trolox, 5 nM Cy3-aptamer, 23 +/- 1 C, pH not stated; QCM: PBS, flow 45 +/- 3 ul/min, thrombin 0.06-16.5 nM
human alpha-thrombin [5] = molecular target: T2, human alpha-thrombin; assay: QCM; linear 1.65-16.5 nM; no significant change below; release 6.3 +/- 0.6% per 5 min at 16.5 nM; smFRET: 1x PBS with 2.5 mM PCA, 0.155 U/ul PCD, 1 mM Trolox, 5 nM Cy3-aptamer, 23 +/- 1 C, pH not stated; QCM: PBS, flow 45 +/- 3 ul/min, thrombin 0.06-16.5 nM

Binder: TTTTTTTGGTTGGTGTGGTTGG (structured_DNA) [HD1 single molecule exp.]
- Kd [1]: 9.2 nM

Binder: TTTTTTTCGCCTAGGTTGGGTAGGGTGGTGGCG (structured_DNA) [NU172 single molecule exp.]
- Kd [2]: 3.3 nM

Binder: TTTTTTTCGCCTAGGTTGGGTAGGGTGGTGGCG (structured_DNA, 5' amino C6) [NU172 QCM exp.]
- binding result (human alpha-thrombin [3]): binds

Binder: TTTTTTTGTGACGTAGGTTGGTGTGGTTGGGGCGTCAC (structured_DNA) [RE31 single molecule exp.]
- Kd [4]: 2.9 nM

Binder: TTTTTTTGTGACGTAGGTTGGTGTGGTTGGGGCGTCAC (structured_DNA, 5' amino C6) [RE31 QCM exp.]
- binding result (human alpha-thrombin [5]): binds
